The record followed here is patent US7413866B2, “Compositions and methods for detecting and treating diseases and conditions related to chemokine receptors” (ChemoCentryx, Inc., priority 2001, dated 2008).

The test system of one assay is MDA MB-231 cells. The assay is described as follows: Matrigel invasion assay. The settings on record: breast tumor cells, 22 hrs. The format is cell-based, human. As to the method: Invasion Assay. Invasion assays were performed as per the manufacturer's instructions. Briefly, chemokines were diluted in HBSS (Life Technologies, Gaithersburg, Md.) supplemented with 0.1% bovine albumin (Sigma Chemical Company, St. Louis, Mo.) and added to the lower wells of BD BioCoat Matrigel Invasion chambers (BD Biosciences, Bedford, Mass.). MDA MB-231 cells were added to the matrigel coated inserts and the plates were incubated at 37° C. in a humidified incubator at a 5% CO2/air mixture for 22 hrs. Following this incubation, the inserts were transferred to a new plate and the media in the inserts was removed. Using a cotton swab the matrigel plug was removed from each well. The filters were then stained using Protocol Hema staining system (Biochemical Sciences, Inc., Swedesboro, N.J.). Invading cells were examined under a Nikon Elipse E800 (Nikon, Inc., Melville, N.Y.) microscope with a 40× lens. Cells were counted in 5 fields of view of each filter. Data represent the mean of 5 fields of view from each filter tested in triplicate.

Assay [1] relates to tumor cells expressing the tumor correlated form of CXCR4. Kind of assay: Serum starvation apoptosis of tumor cells. Type of assay: cell-based. The note with it: serum starved overnight, compared to untreated controls.
Assay [2] concerns the target T1, CXCR4 on E17 fetal liver cells (Mus musculus, UniProt P70658).
T1 construct: the E17 fetal liver cells also express CXCR4; from tissue; host or cells: fetal liver cells of wildtype mouse embryos, E17
The assay is described as follows: SDF-1 mediated calcium mobilization in E17 fetal liver cells. The settings on record: wildtype mouse embryo E17 fetal liver cells. Type of assay: cell-based.

For assay [3], the target named is T2, CXCR4 on MCF-7 cells (Homo sapiens).
T2 construct: host or cells: MCF-7 (whole cells)
The assay is described as follows: 125I SDF-1α competition binding on MCF-7 cells. The note with it: cold competitor array. An excerpt: (§1) Binding Analysis. We employed our technique, DisplaceMax, to examine the global profile of chemokine ligand interaction with CXCR4 on MCF-7 and CEM-NKr cells. This technology employs expanded, efficiency-maximized radioligand binding using filtration protocols as described previously (Kledal T N, et al. Science 277:1656-1659 (1997); Dairaghi, et al. J Biol Chem 274:21569-74 (1999); Gosling, J. et al. J Immunol 164:2851-6 (2000)). […] Where indicated, anti-CXCR4 antibodies or isotype controls were included in the binding reactions. In these experiments cells were pre-incubated with the indicated concentration of antibody for 30 min at 4° C. prior to the addition of radiolabeled chemokine. Small molecules were included in some assays, where indicated. In these assays the compound was added to the plate to the indicated concentration followed by the addition of radiolabeled chemokine. All assays were then incubated for 3 hrs at 4° C. with gentle agitation. Following incubation in all binding assays, reactions were aspirated onto PEI-treated GF/B glass filters (Packard) using a cell harvester (Packard) and washed twice (25 mM HEPES, 500 mM NaCl, 1 mM CaCl2, 5 mM MgCl2, adjusted to pH 7.1). Scintillant (MicroScint 10, Packard) was added to the wells, and the filters were counted in a Packard Topcount scintillation counter. Data were analyzed and plotted using Prism (GraphPad Prism version 3.0a for Macintosh, GraphPad Software).

Assay [4] concerns the target T3, CXCR4 on MCF-7 cells (Homo sapiens, UniProt P25106).
T3 construct: host or cells: MCF-7 (whole cells)
The assay is described as follows: 125I SDF-1α competition binding on MCF-7 cells.
Description: as §1

Assay [5] concerns the target T4, CXCR4 on E13 fetal liver cells (Mus musculus).
T4 construct: from tissue; host or cells: fetal liver cells of wildtype mouse embryos, E13
The assay is described as follows: Radiolabeled human-SDF-1 binding competition on E13 fetal liver cells. The settings on record: wildtype mouse embryo E13 fetal liver cells.

In assay [6] the target is CCR1 on monocytes (UniProt P32246). Kind of assay: 125I MIP-1α competition binding on cells; monocytes. The note with it: ligand.
Assay [7] deals with CCR1 on THP-1 cells (acute monocytic leukemia) (UniProt P32246). The assay is described as follows: 125I MIP-1α competition binding on cells; THP-1 cells. The settings on record: ligand.
Assay [8] concerns the target CCR1 expressed on NSO transfectants (UniProt P32246). Kind of assay: 125I MIP-1α competition binding on cells; NSO-CCR1 cells. The settings on record: ligand.
The target in assay [9] is CCR1 expressed on HEK293 transfectants (UniProt P32246). Kind of assay: 125I MIP-1α competition binding on cells; HEK293-CCR1 cells. The note with it: ligand.
Assay [10] has as its target T3, CXCR4 on MCF-7 cells. Kind of assay: 125I I-TAC competition binding on MCF-7 cells.
Description: as §1, with “Following incubation in all binding assays, reactions were aspirated onto PEI-treated GF/B glass filters (Packard) using a cell harvester (Packard) and washed twice (25 mM HEPES, 500 mM NaCl, 1 mM CaCl2, 5 mM MgCl2, adjusted to pH 7.1).” left out

Assay [11] has as its target T5, CCR1 on monocytes (UniProt P32246 1-355).
T5 chain: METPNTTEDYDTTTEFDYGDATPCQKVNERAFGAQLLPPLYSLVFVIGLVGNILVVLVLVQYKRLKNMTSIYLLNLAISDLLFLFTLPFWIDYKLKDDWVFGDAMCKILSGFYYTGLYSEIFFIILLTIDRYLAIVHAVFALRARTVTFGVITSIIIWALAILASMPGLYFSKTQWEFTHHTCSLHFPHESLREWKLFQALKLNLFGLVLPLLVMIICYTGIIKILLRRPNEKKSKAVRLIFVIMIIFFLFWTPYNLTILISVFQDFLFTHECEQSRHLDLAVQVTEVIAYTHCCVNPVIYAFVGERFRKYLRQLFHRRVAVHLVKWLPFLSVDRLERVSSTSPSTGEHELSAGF
The assay is described as follows: 125I MIP-1α competition binding on cells; monocytes.

Assay [12] deals with T6, CCR1 on THP-1 cells (acute monocytic leukemia) (UniProt P32246 1-355).
T6 chain: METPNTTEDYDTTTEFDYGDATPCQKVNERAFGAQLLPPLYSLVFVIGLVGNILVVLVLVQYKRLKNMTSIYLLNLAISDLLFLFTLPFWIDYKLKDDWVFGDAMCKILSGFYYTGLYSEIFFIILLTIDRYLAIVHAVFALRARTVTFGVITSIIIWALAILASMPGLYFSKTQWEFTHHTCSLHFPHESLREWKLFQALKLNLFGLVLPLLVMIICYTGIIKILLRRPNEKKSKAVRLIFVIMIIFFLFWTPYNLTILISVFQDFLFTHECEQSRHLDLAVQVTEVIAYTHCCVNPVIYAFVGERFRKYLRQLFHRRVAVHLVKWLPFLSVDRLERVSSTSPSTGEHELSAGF
The assay is described as follows: 125I MIP-1α competition binding on cells; THP-1 cells.

Assay [13] addresses T7, CCR1 expressed on NSO transfectants (UniProt P32246 1-355).
T7 chain: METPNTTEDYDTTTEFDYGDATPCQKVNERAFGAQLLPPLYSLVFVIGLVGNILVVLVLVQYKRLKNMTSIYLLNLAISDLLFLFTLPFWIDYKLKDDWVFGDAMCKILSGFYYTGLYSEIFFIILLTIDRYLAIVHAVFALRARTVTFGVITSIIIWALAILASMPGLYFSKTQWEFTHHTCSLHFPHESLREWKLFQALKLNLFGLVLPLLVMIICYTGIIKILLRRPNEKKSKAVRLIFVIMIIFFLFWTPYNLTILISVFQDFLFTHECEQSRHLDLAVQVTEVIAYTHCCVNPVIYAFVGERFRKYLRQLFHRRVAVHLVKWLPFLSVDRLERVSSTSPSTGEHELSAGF
The assay is described as follows: 125I MIP-1α competition binding on cells; NSO-CCR1 cells.

Assay [14] deals with T8, CCR1 expressed on HEK293 transfectants (UniProt P32246 1-355).
T8 chain: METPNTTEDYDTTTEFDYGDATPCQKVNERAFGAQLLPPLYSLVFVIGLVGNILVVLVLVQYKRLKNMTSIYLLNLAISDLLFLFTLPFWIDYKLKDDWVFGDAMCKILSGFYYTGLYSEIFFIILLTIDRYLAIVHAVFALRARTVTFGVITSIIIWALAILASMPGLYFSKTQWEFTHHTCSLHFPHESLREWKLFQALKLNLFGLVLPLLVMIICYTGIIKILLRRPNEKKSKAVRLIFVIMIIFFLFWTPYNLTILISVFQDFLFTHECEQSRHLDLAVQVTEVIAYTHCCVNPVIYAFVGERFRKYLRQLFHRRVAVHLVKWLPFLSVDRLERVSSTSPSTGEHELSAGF
The assay is described as follows: 125I MIP-1α competition binding on cells; HEK293-CCR1 cells.

A further assay addresses T9, CCR1 (Homo sapiens, UniProt P32246).
T9 sequence (P32246 1-355): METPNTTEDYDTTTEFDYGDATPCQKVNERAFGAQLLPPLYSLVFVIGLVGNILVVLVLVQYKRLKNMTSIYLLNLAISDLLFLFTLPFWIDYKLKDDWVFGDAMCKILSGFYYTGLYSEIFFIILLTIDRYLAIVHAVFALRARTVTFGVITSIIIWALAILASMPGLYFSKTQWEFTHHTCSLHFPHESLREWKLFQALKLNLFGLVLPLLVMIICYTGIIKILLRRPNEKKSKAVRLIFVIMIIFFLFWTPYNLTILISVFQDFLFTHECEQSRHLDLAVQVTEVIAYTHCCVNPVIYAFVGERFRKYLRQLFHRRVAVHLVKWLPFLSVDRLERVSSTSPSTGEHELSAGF
The assay is described as follows: Intracellular Ca2+ mobilization via CCR1. Further details: endogenous in cells; host or cells: THP-1, monocytes, neutrophils, immature DC (endogenous); also HEK293-CCR1 and NSO-CCR1 transfectants. The format is cell-based.

T3 sequence (P25106 whole entry): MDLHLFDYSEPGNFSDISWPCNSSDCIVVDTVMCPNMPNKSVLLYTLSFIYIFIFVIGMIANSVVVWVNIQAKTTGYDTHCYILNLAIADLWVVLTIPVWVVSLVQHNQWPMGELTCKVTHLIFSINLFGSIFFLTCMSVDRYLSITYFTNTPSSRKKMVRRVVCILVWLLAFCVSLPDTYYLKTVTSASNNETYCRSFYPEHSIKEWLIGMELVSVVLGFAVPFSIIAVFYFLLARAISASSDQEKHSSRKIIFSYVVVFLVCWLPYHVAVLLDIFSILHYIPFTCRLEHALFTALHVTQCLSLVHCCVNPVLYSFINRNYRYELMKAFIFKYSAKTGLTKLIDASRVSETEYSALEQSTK
T4 sequence (P56485 whole entry): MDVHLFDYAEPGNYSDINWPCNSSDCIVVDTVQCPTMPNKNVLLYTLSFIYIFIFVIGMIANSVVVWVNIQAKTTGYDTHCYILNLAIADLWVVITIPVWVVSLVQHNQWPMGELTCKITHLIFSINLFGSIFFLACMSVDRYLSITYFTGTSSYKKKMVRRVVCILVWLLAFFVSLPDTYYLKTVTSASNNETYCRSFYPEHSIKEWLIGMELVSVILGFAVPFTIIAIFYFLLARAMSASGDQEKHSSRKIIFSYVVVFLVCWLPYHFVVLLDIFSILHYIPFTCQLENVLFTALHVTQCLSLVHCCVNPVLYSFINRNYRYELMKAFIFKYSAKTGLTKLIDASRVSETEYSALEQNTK
T1 sequence (P70658 whole entry): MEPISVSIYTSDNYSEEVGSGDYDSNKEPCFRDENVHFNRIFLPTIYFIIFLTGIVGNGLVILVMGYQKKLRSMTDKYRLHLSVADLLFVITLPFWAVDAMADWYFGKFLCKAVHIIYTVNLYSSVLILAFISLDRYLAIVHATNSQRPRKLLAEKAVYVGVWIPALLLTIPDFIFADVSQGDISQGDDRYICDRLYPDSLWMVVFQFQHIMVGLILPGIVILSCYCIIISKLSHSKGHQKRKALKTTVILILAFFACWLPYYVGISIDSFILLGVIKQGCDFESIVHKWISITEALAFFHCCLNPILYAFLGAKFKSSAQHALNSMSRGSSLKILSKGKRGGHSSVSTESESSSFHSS
T2 sequence (P25106 whole entry): as the sequence (P25106 whole entry) above

Turning to “SDF-1: CXC chemokine, ligand for CXCR4, isoform not stated”, the cell invasion result with MDA MB-231 cells is “induced cell invasion”. In addition, the “recovery from serum starvation induced apoptosis” value in assay [1] was “able to recover from the starvation”. For the same molecule, the “intracellular calcium mobilization in E17 fetal liver cells” value in assay [2] is “mobilizing intracellular calcium”.
Take “I-TAC: recombinant human chemokine, reported CXCR3 ligand”: the “DisplaceMax displacement of 125I SDF-1α on MCF-7, affinity class” value in [3] is recorded as “high affinity”. The “competition with / inhibition of 125I SDF-1α binding on MCF-7 (in words)” value in the assay with CXCR4 on MCF-7 cells [4] was “does compete”. Moreover, the “competition with radiolabeled human-SDF-1 for binding to E13 fetal liver cells” value in assay [5] is on record as “able to compete”.
Turning to “CKβ8 (25-99) (from UniProt P55773 46-120)”, the IC50 came to 0.25 nM with CCR1 on monocytes [6], 0.27 nM in [7], 0.02 nM in [8] and 1.34 nM in [9].
Consider “MIG: monokine induced by gamma interferon, CXCR3 ligand”, for which, in the assay with CXCR4 on MCF-7 cells [10] (MCF-7 cells), the “inhibition of 125I I-TAC binding to MCF-7 by cold chemokine competitor (in words)” value is listed as “not inhibited”. Moreover, in the assay with CXCR4 on MCF-7 cells [10] (excess SDF-1β ~90 nM or excess MIG ~175 nM, 30 min at 4° C.), the “effect of pre-incubation with excess chemokine on 125I I-TAC binding to MCF-7” value was “did not effect this binding profile”.

B1: Leukotactin (ligand)
chain: SFHFAADCCTSYISQSIPCSLMKSYFETSSECSKPGVIFLTKKGRQVCAKPSGPGVQDCMKKLKPYSI
With B1, the IC50 in the assay with CCR1 on monocytes [11] is less than 0.2 nM; in [12], less than 0.2 nM; in assay [13] it was 0.02 nM; in assay [14], less than 0.2 nM. Also, in the assay with CCR1 (HEK293-CCR1, THP-1 and monocytes), the “Ca2+ mobilization in HEK293-CCR1, THP-1 and monocytes” value is recorded as “able to mobilize Ca2+”. Moreover, in the assay with CCR1 (neutrophils), the “Ca2+ mobilization in neutrophils” value was “do not mobilize Ca2+”.

B2: MIP-1α (ligand)
chain: ADTPTACCFSYTSRQIPQNFIADYFETSSQCSKPGVIFLTKRSRQVCADPSEEWVQKYVSDLELSA
modifications: also: 125I label where used as radioligand
For B2, the IC50 with CCR1 on monocytes [11] stood at 0.27 nM; in assay [12] it was 0.17 nM; in assay [13], 0.15 nM; in assay [14], 0.54 nM.
